For orientation: EC50 means the concentration at which the effect is half-maximal. High values mean a less potent agent, low ones a more potent agent.

For 21 molecules, binding result and EC50 results are on record in patent publication US20260234247A1 (published 2026).

Changes are numbered by the printed parent chain.

The target of assay [1] is T1, human LILRB1 expressed on CHOK1 cells (CHOK1-hLILRB1) (human, UniProt Q8NHL6 24-650).
T1 construct: whole, on cells; also called CHOK1-LILRB1
In words: FACS binding to CHOK1-hLILRB1 cells. Background: A flow cytometer gives signals particle by particle.

In assay [2] the target is T2, human LILRB2 expressed on CHOK1 cells (CHOK1-hLILRB2) (human, UniProt Q8N423 22-597).
T2 construct: whole, on cells; also called CHOK1-LILRB2
In words: FACS binding to CHOK1-hLILRB2 cells.

T1 sequence (Q8NHL6 24-650): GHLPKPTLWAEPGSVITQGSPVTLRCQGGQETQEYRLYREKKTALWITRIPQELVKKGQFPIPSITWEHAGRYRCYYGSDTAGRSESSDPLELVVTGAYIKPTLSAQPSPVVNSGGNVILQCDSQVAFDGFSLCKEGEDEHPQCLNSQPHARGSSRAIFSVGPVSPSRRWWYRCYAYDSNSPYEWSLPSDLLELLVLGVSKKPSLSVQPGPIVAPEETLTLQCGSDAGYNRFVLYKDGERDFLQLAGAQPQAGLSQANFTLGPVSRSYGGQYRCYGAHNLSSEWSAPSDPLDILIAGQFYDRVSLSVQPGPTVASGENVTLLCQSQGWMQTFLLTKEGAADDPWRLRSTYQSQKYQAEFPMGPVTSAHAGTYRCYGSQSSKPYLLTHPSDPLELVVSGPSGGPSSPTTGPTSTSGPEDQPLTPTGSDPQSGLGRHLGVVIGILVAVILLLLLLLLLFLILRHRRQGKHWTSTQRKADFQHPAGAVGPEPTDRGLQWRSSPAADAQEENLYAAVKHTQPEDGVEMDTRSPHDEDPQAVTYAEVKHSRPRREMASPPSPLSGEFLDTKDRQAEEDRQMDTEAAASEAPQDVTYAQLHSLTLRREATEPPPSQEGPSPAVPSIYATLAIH
T2 sequence (Q8N423 22-597): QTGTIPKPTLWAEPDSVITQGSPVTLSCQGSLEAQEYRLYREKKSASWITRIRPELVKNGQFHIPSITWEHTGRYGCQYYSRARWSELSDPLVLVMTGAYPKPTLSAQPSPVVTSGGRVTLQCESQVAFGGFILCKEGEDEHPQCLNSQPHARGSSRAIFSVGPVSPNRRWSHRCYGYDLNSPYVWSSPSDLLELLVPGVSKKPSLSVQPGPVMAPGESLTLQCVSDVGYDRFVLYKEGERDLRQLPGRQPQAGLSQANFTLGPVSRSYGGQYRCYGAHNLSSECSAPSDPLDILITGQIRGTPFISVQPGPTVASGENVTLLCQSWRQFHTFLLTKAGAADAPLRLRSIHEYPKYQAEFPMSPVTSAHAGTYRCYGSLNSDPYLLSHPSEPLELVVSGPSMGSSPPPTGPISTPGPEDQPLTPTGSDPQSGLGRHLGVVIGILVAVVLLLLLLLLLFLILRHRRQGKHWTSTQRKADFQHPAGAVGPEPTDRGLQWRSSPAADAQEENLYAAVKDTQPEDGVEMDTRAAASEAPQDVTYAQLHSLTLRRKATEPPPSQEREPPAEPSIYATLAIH

B1: LK-RB2-10 (antibody, human IgG4 S228P, kappa, V domains shown)
VH: EVMLVESGGDLVKPGGSLKLSCAASGFTFSANTVSWLRRTPERRLEWVATISGGSDNTYCPDSVKGRFTISRDNARDTLYLQMSSLTSEDTALYFCARHYYDGPNWYFDVWGPGTTVTVSS
VL: DIVMTQSQKFMSSTGGDRVTITCKASQNVDTAVAWYQQKPGQSPKLLIYSASNRYIGVPDRFKGSGSGTDFSLTITNIQSEDLAEYFCQQYSSYPLTFGAGTKLELKR
Turning to B1, in assay [1], the binding result is listed as “no binding”. This molecule also showed an EC50 in assay [2] of 0.27 nM.

B2: LK-RB2-46 (antibody, human IgG4 S228P, kappa, V domains shown)
VH: QVQMQQSDAELVKPGASVKISCKVSGYTFTDQIIHWMKQRPEQGLEWIGYIYPRDDSIMYNEKFKGKATLTADKSSSTANMQLNSLTSEDSAVYFCAYDAYWYFDVWGTGTTVIVSS
VL: DIVMTQSHKFMSASVGDRVSITCKASQDVNTAVAWYRQDPGQSPKLLIYWASTRHTGVPDRFTGSGSGTDYTLTINNFQAEDLALYYCQQHYSPPLTFGAGTKLELKR
Turning to B2, the binding result in assay [1] is “no binding”. Besides, the EC50 in assay [2] worked out at 0.35 nM.

B3: LK-RB2-31 (antibody, human IgG4 S228P, kappa, V domains shown)
VH: QVQLQQPGAELVKPGASMKLSCKASGYTFTTYYMYWVKQRPGLGLEWIGGINPSNGGTTFNEKFKNKATLTVDKSSSTAYMQLRSLTSEDSAVYYCTRWRFFDVWGAGTTVTVSS
VL: SIVMTQTPEFLLVSAGDRVTITCKASQSVNNDVAWFQQKPGQSPKLLIYYASNRYTGVPDRFTGSGYGTDFTFTISTVQAEDLAIYFCQQDYSSPPTFGGATKLEIKR
In assay [1], B3 showed an EC50 of 1.99 nM. The binding result in assay [2] is given as “no binding”.

B4: LK-RB2-47 (antibody, human IgG4 S228P, kappa, V domains shown)
VH: QVQLKQSGPGLVQPSQSLSITCTVSGFSLISYGVHWVRQSPGKGLEWLGVIWSGGSTDYNAAFISRLSISKDNSKSQVFFKMNSLQADDTAIYYCARSFHYHGSTFDYWGQGTTLTVSS
VL: DIQMTQTTSSLSASLGDRVIISCRASQDINNYLNWYQQKPDGTVKLLIYFTSRLHSGVPSSFSGSGSGTDYSLTINNLEQEDIATYFCQQVNTLPYTFGGGTKLEIKR
As for B4, the binding result in assay [1] and in assay [2] was “no binding” each time.

B5: LK-RB2-43 (antibody, human IgG4 S228P, kappa, V domains shown)
VH: EVQLVESGGDLVKPGGSLKLSCAASGFTFSSYGMSWVRQTPDKRLEWVATISGGGTYTYYPDSVKGRFTISRDNAKNTLYLQMSSLKSEDTAMYYCASGAMDYWGQGTSVTVSS
VL: QIVLTQSPAILSASPGEKVTMTCSANSSVSSMYKYQQKPGSSPKPWIYGTSNLASGVPARFSGSGSGTSYSLTISSMEAADAATYYCQQYHSHPLTFGAGTKLELKR
As for B5, the binding result in assay [1] and in assay [2] was “no binding” in each case.

B6: LK-RB2-44 (antibody, human IgG4 S228P, kappa, V domains shown)
VH: B5 VH
VL: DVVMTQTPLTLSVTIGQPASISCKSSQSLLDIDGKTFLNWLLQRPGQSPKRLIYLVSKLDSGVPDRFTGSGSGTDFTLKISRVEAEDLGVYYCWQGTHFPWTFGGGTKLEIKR
Turning to B6, the binding result in assay [1] and in assay [2] was “no binding” throughout.

B7: LK-RB2-32 (antibody, human IgG4 S228P, kappa, V domains shown)
VH: DVQLQESGPGLVKPSQSLSLTCSVTGYSITSGYYWNWIRQFPGNKLEWMGYISFDGSNHYNPSLRNRISITRDTFKNQFFLKLNSVTTEDTATFYCTRRDYNWFAYWGQGTLVTVSA
VL: DIVLTQSPVTLSVTPGDSVSLSCRASQNINKNLHWYQQRSHESPRLLIKYVSQSISGIPSRFSGSGSGTDFTLSINSVETEDFGMYFCQQSNSWPLTFGAGTKLELRR
B7 had an EC50 in assay [1] of 4.54 nM. In other words, the single-digit nanomolar range.

B8: LK-RB2-25 (antibody, human IgG4 S228P, kappa, V domains shown)
VH: QVQLKESGPGLVAPSQSLSITCTVSGFSLTSYGVHWVRQPPGKGLEWLGVIWAGGSTKYNSALMSRLSINKDNSKSQVFLKMNSLQTDDTAMYYCARDQMVRSAMDYWGQGTSVTVSS
VL: DIQMIQSPSSMFASLGDRVSLSCRASQGIRGNLDWYQQKPGGTIKLLIYSTSNLNSAVPSRFSGSGSGSDYSLTISNLESEDFADYYCLQRNASPYTFGGGTKLEIKR
Turning to B8, in assay [1], the EC50 amounted to 1.71 nM. Besides, the binding result in assay [2] is recorded as “no binding”.

B9: LK-RB2-39 (antibody, human IgG4 S228P, kappa, V domains shown)
VH: DVKLVESGGGSVQPGGSLKLSCAASGFTFSDYYMYWVRQTPEKRLEWVAYISNGGGNTYYPDTVKGRFTISRDNAKNTLYLQMSRLKSEDTAMYYCARSNWAWYFDVWGTGTTVTVSS
VL: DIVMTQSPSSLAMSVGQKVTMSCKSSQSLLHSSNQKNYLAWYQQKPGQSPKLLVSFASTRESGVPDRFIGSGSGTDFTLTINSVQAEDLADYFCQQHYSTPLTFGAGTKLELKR
With B9, the binding result in assay [1] is on record as “no binding”. The molecule also displayed an EC50 in assay [2] of 36.6 nM.

B10: LK-RB2-7 (antibody, human IgG4 S228P, kappa, V domains shown)
VH: DVKLVESGEGLVKPGGSLKLSCAASGFTFSSYAMSWVRQTPEMRLEWVAYISSGGDHFYYADTVKGRFTISRDNARSTLYLQMSSLKSEDTAMYYCTREGASYDSNFLAWFAYWGQGTLVTVSA
VL: DIQMTQSPASLSVSVGETVTITCRASENIYSNLAWYQQKEGKSPQLLVYGATNLADGVPSRFSGSGSGTQYSLKINSLQSEDFGSYYCQNFWDIPLTFGAGTKLELKR
Turning to B10, the binding result in assay [1] was “no binding”. In assay [2], the EC50 came out at 0.25 nM.

B11: LK-RB2-9 (antibody, human IgG4 S228P, kappa, V domains shown)
VH: DVQLQESGPGLVKPSQSLSLTCSVTGYSITSGYYWNWIRQFPGNKLEWMGYIGYDGNNNYNPSLKNRISITRDTSKNQFFLKLNSLTTEDTATYYCAREGSTMVTSWFAYWGQGTLVTVSA
VL: B10 VL with E40Q, S65R, G68D, N90H, I94T, L96Y, A100G, L106I
For B11, in assay [1], the binding result is on record as “no binding”. This molecule also yielded an EC50 in assay [2] of 0.17 nM.

B12: LK-RB2-18 (antibody, human IgG4 S228P, kappa, V domains shown)
VH: EVQLQQSGPELVKPGTSVKISCKASGYTFTDYYMNWVKQSHGKSLEWIGDINPNNGGTSYNQKFKGKATLTVDKSSSTAYMELRSLTSEDSAVFYCARSGTTVVGTYWYFDVWGTGTTVTVSS
VL: B10 VL with E40Q, N90H, I94T, L96F, A100S, L106I
In the case of B12, in assay [1], the binding result was “no binding”. Moreover, the midpoint of the response in assay [2], the EC50, lay at 0.14 nM.

B13: LK-RB2-20 (antibody, human IgG4 S228P, kappa, V domains shown)
VH: QVQLKQPGAERVKPGASVKMSCKASGYTFTRYWITWVKQRPGQGLEWIGDIYPGSATTNYNEKFKSKATLTEDTSSSTAYMQLSSLTSEDSAVYYCARSGDYSNSNYAMDYWGQGTSVTVSS
VL: NIEMTQSPKSMSMAVGERVTLSCKASENVGTYVSWYQQKPEQSPKLLIYGASNRNTGVPDRFTGSGSATDFTLTISSVQAEDLADYHCGQSYSYPFTFGSGTKLEIKR
Consider B13, for which the binding result in assay [1] is listed as “no binding”. Also, the EC50 in assay [2] was 0.14 nM.

B14: LK-RB2-11 (antibody, human IgG4 S228P, kappa, V domains shown)
VH: QIQLVQSGPELKKPGETVKISCKASGYSFITYGMSWVKQAPGKGLKWMGWINTYSGEPTYGDDFMGRFAFSLETSASTAYLQINNLKNEDTASYFCARYHYDDGMDYWGQGTSVTVSS
VL: DIKMTQSPSSMYASLGERVTITCKASQDINNYLSWFQQKPGKSPKTLIFRANRLVDGVPSRFSGSGSGQDYSLTISSLEDEDMGIYYCLQYDEFPWMFGGGTKLEIER
With B14, in assay [1], the binding result was “no binding”. Besides, the EC50 in assay [2] is 0.27 nM.

B15: LK-RB2-6 (antibody, human IgG4 S228P, kappa, V domains shown)
VH: QIQLVQSGPELKKPGETVKISCKASGYTFTTYGMSWVKQAPGKGLEWMGWINIYSGVPTYADDFKGRFAFSLETSASTAYLQINNLKNEDTATYFCARRGDYDSFYFDYWGQGTTLTVSS
VL: DIVMSQSPSSLAVSVGEKVTVSCKSSQSLLYSYNQKNYLAWYQQKPGQSPKLLIYWSSTRESGVPDRFTGSGSGTDFTLTISSVKAEDLAVYYCQQCYNYPYTFGGGTKLEIKR
Take B15: the binding result in assay [1] is “no binding”. It took 0.66 nM to reach a half-maximal effect in assay [2] (EC50).

B16: LK-RB2-13 (antibody, human IgG4 S228P, kappa, V domains shown)
VH: QIQLVQSGPELKKPGETVKISCKASGYTFTTYGMSWVKQAPGKGLQWMGWINTYSGVPTFADDFKGRFAFSLDTSASTAYLQINNLKNEDTATYFCARRINWDGYAMDYWGQGTSVTVSS
VL: B15 VL with I2S, V21M, Y33G, N37S, S57A, C97Y, N99S
For B16, the binding result in assay [1] is “no binding”. In assay [2], this molecule registered an EC50 of 0.23 nM.

B17: LK-RB2-17 (antibody, human IgG4 S228P, kappa, V domains shown)
VH: B16 VH with T31N, K65R, N85S, T93A
VL: B15 VL with I2S, V21L, Y33G, N37S, S57A, T59S, C97Y, N99S, Y100F
Consider B17, for which the binding result in assay [1] is listed as “no binding”. The EC50 in assay [2] is 0.16 nM.

B18: p1E1 (antibody, human IgG4 S228P, kappa, V domains shown)
VH: EVQLQQWGAGLLKPSETLSLTCAVYGGSFSGYYWSWIRQPPGKGLEWIGEINHSGSTNYNPSLKSRVTISVDTSKNQFSLKLSSVTAADTAVYYCARLPTRWVTTRYFDLWGRGTLVTVSS
VL: ESVLTQPPSVSGAPGQRVTISCTGSSSNIGAGYDVHWYQQLPGTAPKLLIYGNSNRPSGVPDRFSVSKSGASASLAITGLQAEDEADYYCQSFDNSLSAYVFGGGTQLTVLG
Turning to B18, the binding result in assay [1] is on record as “no binding”. Besides, the EC50 in assay [2] turned out to be 0.64 nM.

B19: LK-RB2-27 (antibody, human IgG4 S228P, kappa, V domains shown)
VH: DVKLVESGGGLVKPGGSLKLSCAASGFTFSSYSMSWVRQTPEKRLEWVATISTGGSYTYYPDSVKGRFTISRDNAKNTLYLQMSSLKSEDTAMFYCTRGSMDYWGQGTSVTVSS
VL: DILMTQSPSSMSVSLGDTVSITCHASQDISSNIGWLQQKPGNSFKGLIYHGTNLEDGVPSRFSGSGSGADYSLTISSLESEDFADYYCVQYAQFPYTFGGGTKLEIKR
Turning to B19, the binding result in assay [1] and in assay [2] was “no binding” in each case.

B20: LK-RB2-34 (antibody, human IgG4 S228P, kappa, V domains shown)
VH: B19 VH with L4V, G55S, P61S
VL: B19 VL with T52I
On to B20, for which the binding result in assay [1] and in assay [2] was “no binding” each time.

B21: LK-RB2-28 (antibody, human IgG4 S228P, kappa, V domains shown)
VH: B19 VH with V64M
VL: B19 VL with T22A
With B21, the binding result in assay [1] and in assay [2] was “no binding” throughout.
